Article PMC5923107 (Antimicrobial Agents and Chemotherapy, 2018)

B1: TRL847 (antibody, V domains shown)
VH: QVQLVESGGGLVQPGGSLRLSCVASGFTFSRFSMNWVRQAPGMGLEWVSYISDTGRTIYYADSVKGRFTISRDNDKNTLYLQMKSLRDEDSAFYYCARDPDTPFVRAFDSWGQGVLVTVSS
VL: DIVMTQSPSFLSASVGDRVTITCRTSQVISSYLAWYQQRPGKAPKLLIYAASTLQSGVPSRFSGSGSGTRFSLTISNLQPEDFATYFCQQLTTYPPITFGQGTRLEIK
notes: also called MAb TRL847
B2: TRL854 (antibody, V domains shown)
VH: QVQLVESGAEVKKPGASVRVSCKGSGYTFTAYHMHWVRQAPGQGFEWVGWINPNSGATYYTSTFEGRVTMTRDTSITTAYMELSSLRSDDTAVYYCATDIVVERDASLGGFNSYGMDVWGQGTTVTVSS
VL: DIEMTQSPLSLPVTPGEPASISCRSSQSLLHSNGYNHLAWYLQKPGRSPHLLIYLASTRASGVPDRFSGSGSGTDFTLKISRVEAEDVGIYYCMQSLQTSITFGQGTRLEIK
notes: also called MAb TRL854
B3: TRL848 (antibody, V domains shown)
VH: QVQLLESGGDVVQPGTSLRLSCAASGFSLWTSGMHWVRQAPGKGLEWVAVMSYDETKKYYADSVRGRFSISRDNSRNTLYLQMNSLRVEDTAVYFCAKPRLDYLDYFHAADSWGQGTLVSVSS
VL: DIVLTQPPSVSVAPGQTATITCGGNYIGSKSVNWYQQRPGHAPVLVVYDDSDRPSGIPDRFSGSNSRSTATTATLTISRVEAGDEADYYCQVWETSEDLWVFGGGTKLTVL
notes: also called MAb TRL848
B4: TRL845 (antibody, V domains shown)
VH: QVQLVQSGGDLVQPGGSLRLSCAASGFTFSRYSMNWVRQAPGMGLEWVAYISDTSRTIYYADSVKGRFTISRDNAKNSLYLQMKSLRDEDTAVYYCARDPDTPFVRAFDSWGQGTLVTVSS
VL: DIVLTQSPSFLSASVGDRVTITCRASQLISSYFAWYQQKPGKPPKLLIYAASTLQSGVPSRFSGSGSGTQFSLTISSLQPEDFATYYCQQLNSYPPITFGQGTRLEIK
notes: also called MAb TRL845
B5: TRL849 (antibody, V domains shown)
VH: QVQLVESGPGLVKPSQTLSLTCTVSGGSISNGGYHWSWIRQHPGKGLEWIGNIYYRGSTFYDPSLKSRVTISVDTSKSQFSLKLTSVTAADTAVYYCARMPLANYDLLTGLYIGAFDLWGQGTMVTVSS
VL: DIVLTQSPATLSVSPGERATLSCRASQSVNRNLAWFQQIPGQAPRLLIFDASTRAADIPARFSGGGSGAEFTLTVSSLQPEDFAVYYCQQYDKWPPGFGQGTKVEIK
notes: also called MAb TRL849

What follows are binders tested against T1, hemagglutinin (HA) of influenza B virus B/Brisbane/60/2008 (Victoria lineage) (Influenza B virus B/Brisbane/60/2008, UniProt C0LT35, strain) (assay: ELISA). Conditions: both partners purified.
T1 construct: also called B/Brisbane/60/2008 HA; source: bought: Immune Tech

Row | Binder | binding result
1 | B1 | binds
2 | B2 | binds
3 | B3 | binds
4 | B4 | binds
5 | B5 | binds

Each binder was assayed against T2, hemagglutinin (HA) of influenza B virus B/Florida/04/2006 (Yamagata lineage) (Influenza B virus B/Florida/4/2006, UniProt E1TVD5, strain) (assay: ELISA). Conditions: both partners purified.
T2 construct: also called B/Florida/4/2006 HA; HA of B/Florida/04/2006; source: bought: Sino Biological

Row | Binder | binding result
6 | B1 | binds
7 | B2 | binds
8 | B3 | binds

The binders below were run against T3, hemagglutinin (HA) of influenza B virus B/Victoria/2/1987 (Victoria lineage) (Influenza B virus B/Victoria/2/1987, UniProt P22092, strain) (assay: ELISA). Conditions: both partners purified.
T3 construct: also called B/Victoria/2/1987 HA; source: bought: Immune Tech

Row | Binder | binding result
9 | B1 | binds
10 | B2 | binds
11 | B3 | binds
12 | B4 | binds
13 | B5 | binds

Each binder was assayed against T4, hemagglutinin (HA) of influenza B virus B/Malaysia/2506/2004 (Victoria lineage) (Influenza B virus B/Malaysia/2506/2004; …, UniProt C0LT35, strain) (assay: ELISA). Conditions: both partners purified.
T4 construct: also called B/Malaysia/2506/2004 HA; source: bought: Protein Sciences

Row | Binder | binding result
14 | B1 | binds
15 | B2 | binds
16 | B3 | binds
17 | B4 | binds
18 | B5 | binds
